Measured values published in publication PMC4187101.

Target: DNA adenine-N6 methyltransferase M.TaqI (Thermus aquaticus) (UniProt P14385)
Experiment: competition, 2-aminopurine fluorescence titration
Details: 20 mM TrisOAc pH 7.9, 10 mM Mg(OAc)2, 50 mM KOAc, 0.01% reduced Triton X-100, with 1 mM DTT (unlocked) or no reducing agent (locked), 400 nM duplex vs 200 nM …

DNA adenine-N6 methyltransferase M.TaqI (Thermus aquaticus), sequence (P14385 whole entry): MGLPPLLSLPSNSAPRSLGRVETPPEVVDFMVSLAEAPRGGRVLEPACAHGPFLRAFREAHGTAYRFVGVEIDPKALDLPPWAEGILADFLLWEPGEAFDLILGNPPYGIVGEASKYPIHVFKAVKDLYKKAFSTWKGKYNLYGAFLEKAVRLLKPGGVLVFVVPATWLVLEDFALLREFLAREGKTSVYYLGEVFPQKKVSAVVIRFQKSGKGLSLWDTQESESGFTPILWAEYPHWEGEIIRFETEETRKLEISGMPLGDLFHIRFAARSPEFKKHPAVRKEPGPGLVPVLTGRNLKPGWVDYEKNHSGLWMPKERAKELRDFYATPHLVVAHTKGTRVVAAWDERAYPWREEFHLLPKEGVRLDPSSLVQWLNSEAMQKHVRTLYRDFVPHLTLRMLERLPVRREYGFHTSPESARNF

Sequence	Kd (strand 1 position 9 (N) = 6-thio-2'-deoxyinosine, S-ethylene-S interstrand cross-linked to 4-thio-2'-deoxyuridine at strand 2 U6, strand 2 A9 = N6-methyl-dA)	Kd (strand 1 position 9 (N) = 6-thio-2'-deoxyinosine (I6S), strand 2 U6 = 4-thio-2'-deoxyuridine (U4S), A9 = N6-methyl-dA, all other residues DNA)
GCCGCTCGNTGCCG / CGGCAUCGAGCGGC [1I6S-Et-S4U2 (locked, cross-linked A/T analog)]	6 nM	–
GCCGCTCGNTGCCG / CGGCAUCGAGCGGC [1I6S·2U4S (unlocked A/T analog)]	–	1 nM
